Molecular target: TEAD4 (UniProt Q15561)
Assay: co-immunoprecipitation
Conditions: reference: wild type SP1

For “SP1 (from UniProt P08047) S670 single mutant”, which “binding against the reference” value (sites S670) is on record?
The value was “weaker”.

How did the “binding against the reference” value (sites T668) turn out when “SP1 (from UniProt P08047) T668 single mutant” was run?
The value was “weaker”.

“SP1 (from UniProt P08047) T681 single mutant” was tested. Which “binding against the reference” value (sites T681) did it give?
The value was “weaker”.

— paper PMC12089306
